Target: human MN protein, entire extra-cellular domain with a C-terminal histag, expressed in HKB-11 cells (human, UniProt Q16790 38-414)
Test: BIAcore; crude Fab

Kd: 25 nM
B1: 5aa3 Crude Fab (antibody, V domains shown)
VH: ELVQSGAEVKKPGESLKISCKGSGYSFTGYISWVRQAPGKGLEWMGIIYPGDSYTNYSPSFQGQVTISADKSISTAYLQWSSLKASDTAMYYCARYSGPNWDVMDSWGQGTLVTVSS
VL: DIVLTQPPSVSGAPGQRVTISCSGSSSNIGSYYVNWYQQLPGTAPKLLIYADDKRPSGVPDRFSGSKSGTSASLAITGLQSEDEADYYCQSYDSTKDDSVFGGGTKL

Source: patent US20100129315A1 (published 2010)
